Results published in patent publication US20200347130A1 (JIANGSU HENGRUI MEDICINE, published 2020).
Changes are numbered by the printed parent chain.

T1: CD96 extracellular region with His tag (CD96-His) (human, UniProt P40200 22-519)
T1 construct: also called CD96-ECD-His; Bio-CD96-His (biotin-labelled form)
T1 sequence: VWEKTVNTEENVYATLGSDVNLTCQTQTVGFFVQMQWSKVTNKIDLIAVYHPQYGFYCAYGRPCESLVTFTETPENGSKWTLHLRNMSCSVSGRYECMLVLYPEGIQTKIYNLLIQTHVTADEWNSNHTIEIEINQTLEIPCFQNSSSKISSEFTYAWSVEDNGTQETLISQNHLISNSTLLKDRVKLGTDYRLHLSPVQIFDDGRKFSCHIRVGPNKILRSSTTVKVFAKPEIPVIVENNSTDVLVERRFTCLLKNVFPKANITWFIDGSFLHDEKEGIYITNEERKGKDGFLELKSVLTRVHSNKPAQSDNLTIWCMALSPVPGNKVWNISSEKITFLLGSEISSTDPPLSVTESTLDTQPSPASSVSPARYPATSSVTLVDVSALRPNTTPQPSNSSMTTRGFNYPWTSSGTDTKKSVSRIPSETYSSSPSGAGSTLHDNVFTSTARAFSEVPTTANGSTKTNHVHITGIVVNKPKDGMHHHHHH

T2: Full-length human CD96 on CHO-S cells (human, UniProt P40200 22-585)
T2 construct: also called CD96-CHOs; hCD96-CHOs
T2 sequence: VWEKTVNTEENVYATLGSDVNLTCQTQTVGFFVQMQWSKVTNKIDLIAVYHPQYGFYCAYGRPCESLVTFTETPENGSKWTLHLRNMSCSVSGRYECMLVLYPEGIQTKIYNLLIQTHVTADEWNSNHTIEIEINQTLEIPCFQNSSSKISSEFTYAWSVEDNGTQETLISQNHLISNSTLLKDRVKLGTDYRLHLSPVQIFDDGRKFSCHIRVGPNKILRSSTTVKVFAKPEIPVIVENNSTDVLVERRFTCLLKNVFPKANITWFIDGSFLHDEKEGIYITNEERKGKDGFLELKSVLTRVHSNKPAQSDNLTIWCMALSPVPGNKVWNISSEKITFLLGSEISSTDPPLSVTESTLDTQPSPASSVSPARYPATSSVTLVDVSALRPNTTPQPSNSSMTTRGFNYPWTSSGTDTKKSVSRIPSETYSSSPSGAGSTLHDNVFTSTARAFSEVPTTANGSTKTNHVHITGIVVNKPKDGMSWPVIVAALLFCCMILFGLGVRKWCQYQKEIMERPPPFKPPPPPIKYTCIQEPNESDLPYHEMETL

B1: ch1722 (antibody, human IgG4 S228P, kappa, V domains shown)
VH: QVQLQQPGAELVKPGTSVKLSCKASGNTFIDYWMHWVKQRPGQGLEWIGMLHPNSGTTSFNEKFKIKTTLTIDKSSSTAYMQLSSLTSEDSAIYYCASDYSGPFAYWGQGTLVTVSA
VL: QIVLTQSPGIMSAFPGEKVTMTCSASSSVNYIHWYQQKSGTSPKRWIFDTSKLASGVPARFSGSGSGTSYSLTISSMEAEDAATYYCQQWRSNPLTFGAGTKLELKR
notes: also called chi722; chimeric antibody corresponding to m1722
B2: ch1719 (antibody, human IgG4 S228P, kappa, V domains shown)
VH: QVQLKESGPGLVAPSQSLSITCTVSGFSLISYGVSWVRQPPGKGLEWLGVIWGDGNTNYHSVLISRLSIRKDDSKSQVFLKLNSLQTDDTATYYCAKNNYYGSRYGYPMDYWGQGTSVTVSS
VL: DIVMTQSHKFMSTSVGDRVSITCKATQDVGTAVAWYQQKPGHSPKLLIYWASTRHTGVPERFTGSGSGTDFTLTIDNVQSEDLADYFCQQYGSSVLTFGAGTKVELRR
notes: also called chimeric antibody corresponding to m1719
B3: ch1721 (antibody, human IgG4 S228P, kappa, V domains shown)
VH: B2 VH with S35N, N56S, V62A, R70S, K81N, N99Y, Y100F, P108A, Y111S, T116I
VL: DIQMTQSPASLSAAVGETVTITCRASENIYSSLAWYQQKQGKSPQLLVYNAKTLIETVASRFSGSGSGTQYSLKINSLQPEDFGSFYCQHHYGTPYTFGGGTKLEIKR
notes: also called chimeric antibody corresponding to m1721
B4: h1722-010 (antibody, V domains shown)
VH: EVQLVQSGAEVKKPGSSVKVSCKASGGTFSDYWMHWVRQAPGQGLEWIGMLHPNSGTTSFNEKFKIRVTITADKSTSTAYMELSSLRSEDTAVYYCASDYSGPFAYWGQGTLVTVSS
VL: DIQLTQSPSSLSASVGDRVTITCSASSSVNYIHWYQQKPGKAPKRWIFDTSKLASGVPSRFSGSGSGTDYTLTISSLQPEDFATYYCQQWRSNPLTFGQGTKLEIK
notes: Only variable regions are tied to this name; also called M722-010
B5: h1722-006 (antibody, V domains shown)
VH: B4 VH
VL: B4 VL with L4M, F48Y, Y70F
notes: Only variable regions are tied to this name
B6: h1722-018 (antibody, V domains shown)
VH: B4 VH with N54Q
VL: B4 VL
B7: h1722-017 (antibody, V domains shown)
VH: B4 VH with N54K
VL: B4 VL
B8: h1718-012 (antibody, V domains shown)
VH: EVQLVQSGAEVKKPGASVKVSCKASGYTITDYNMNWVRQAPGQRLEWIGVINPSYGITDYNQNFKDRVTITVDTSASTAYMELSSLRSEDTAVYYCAIQLRLPGYFDVWGQGTTVTVSS
VL: DIQMTQSPSSLSASVGDRVTITCKASQDINQYLNWFQQKPGKAPKTLIYRANRLVDGVPSRFSGSGSGQDYTLTISSLQPEDFATYYCLKYDEFPYTFGGGTKVEIK
notes: as for B5
B9: ch1720 (antibody, human IgG4 S228P, kappa, V domains shown)
VH: EFQLQQSGPELVKPGASVKISCKASAYSLTDYNMNWVKQSNGKSLEWIGVINPSYGISSYNQKFKGKATLTVDQSSSTAYMHLNSLTSEDSAVYYCARQLRLPGYFDVWGTGTTVTVSS
VL: DIKMTQSPSSKNASLGERVTITCKASQDINSYLNWFQQKPGKSPKTLIYRASRLVDGVPSRFSGSGSGQDYSLTISSLEYEDMGIYYCLKYDEFPYTFGGGTKLEIKR
notes: also called chimeric antibody corresponding to m1720
B10: ch1718 (antibody, human IgG4 S228P, kappa, V domains shown)
VH: B9 VH with L29I, S58T, S59D, K63N, G66D, H82Q, R98I, T116I
VL: B9 VL with K11M, N12Y, S31N, S52N, L104V
notes: also called chimeric antibody corresponding to m1718
B11: h1721-003 (antibody, V domains shown)
VH: EVTLKESGPVLVKPTETLTLTCTVSGFSLSSYGVNWIRQPPGKALEWLGVIWGDGSTNYHSALISRLTISKDTSKSQVVLTLTNMDPVDTATYYCAKNYFYGSRYGYAMDSWGQGTTVTVSS
VL: DIQMTQSPSSLSASVGDRVTITCRASENIYSSLAWYQQKPGKAPKLLIYNAKTLIEGVPSRFSGSGSGTDFTLTISSLQPEDFATYYCQHHYGTPYTFGGGTKVEIK
notes: Only variable regions are tied to this name; also called M721-003
B12: h1719-006 (antibody, V domains shown)
VH: B11 VH with N35S, I37V, A44G, S56N, A62V, Y99N, F100Y, A108P, S111Y
VL: DIQMTQSPSSVSASVGDRVTITCKATQDVGTAVAWYQQKPGKSPKLLIYWASTRHTGVPERFSGSGSGTDFTLTISSLQPEDFATYFCQQYGSSVLTFGGGTKVEIK
notes: also called M719-006

What follows are binders tested against T1, CD96 extracellular region with His tag … (assay: ELISA, CD96-His coated).
Method: The binding capacity of the anti-CD96 antibody was tested by ELISA to determine the binding of the antibody to human CD96 protein. The His-tagged CD96 fusion protein was used to coat the microtiter plate, and the intensity of the signal after adding with the antibody was used for evaluating the binding activity of the antibody and CD96. The specific experimental method is as follows:
CD96-His with the sequence of SEQ ID NO: 4 prepared in Embodiment 1 was diluted to a concentration of 2 μg/ml with PBS buffer (Shanghai Yuanpei Biotechnology Co., Ltd. Cat No. B320), pH 7.4, added to a 96-well microtiter plate (Corning, Cat No. CLS3590-100EA) at a volume of 50 μl/well, and placed in an incubator at 37° C. for 2 hours. After discarding the liquid, 250 μl/well of 5% skim milk (BD, Cat No. 232100) blocking solution diluted with PBS was added, and the plate was incubated at 37° C. for 2.5 hours or at 4° C. overnight (16-18 hours) for blocking. After blocking, the blocking solution was discarded, and the plate was washed 4 times with PBST buffer (pH 7.4 PBS containing 0.05% tween-20). 50 μl/well of different concentrations of the antibodies to be tested (hybridoma purification antibody or humanized antibody) diluted with sample dilution was added, and the plate was incubated in an incubator at 37° C. for 1 hour. […] After washing the plate 4 times with PBST, 50 μl/well of TMB chromogenic substrate (KPL, Cat No. 52-00-03) was added, and the plate was incubated at room temperature for 5-15 minutes, followed by adding 50 μl/well of 1M H₂SO₄ to stop the reaction. The absorption value was read at 450 nm with a NOVOStar microplate reader, and the EC50 value of the binding of CD96 antibody to human CD96 was calculated (see Table 13).

EC50 [nM] | Binder
0.094 | B1
0.065 | B2
0.075 | B3
0.073 | B4
0.077 | B5
0.091 | B6
0.113 | B7
0.095 | B8
0.074 | B9
0.084 | B10
0.07 | B11
0.083 | B12

The binders below were run against T2, Full-length human CD96 on CHO-S cells (assay: cell ELISA, fixed CD96-overexpressing CHO-S cells).
Method: The binding capacity of the anti-CD96 antibody was tested by binding experiments of the antibody to human CD96 protein overexpressing CHO-S cells. The full-length CD96 plasmid was transfected into CHO-S cells by electrotransfection, and cells were then screened for two weeks under pressure for the detection of the expression of CD96. After the over-expressing cells were fixed at the bottom of the 96-well plate, the density of the signal after adding the antibody was used to judge the binding activity of the antibody to CD96 overexpressing CHO-S cells. The specific experimental method is as follows:
The cells were seeded at a density of 9×10⁴/100 μL/well in a 96-well plate and cultured overnight. After aspirating the supernatant, the plate was washed once with PBS, subsequently, 100 μl/well immunostaining fixation solution (Biyuntian, P0098) was added and fixed for one hour at room temperature, and the plate was washed three times with PBS. Once the liquid was discarded, 250 μl/well of 5% skim milk (BD, 232100) blocking solution diluted with PBS was added, and the plate was blocked in an incubator at 37° C. for 2.5 hours. After blocking, the blocking solution was discarded, the plate was washed 4 times with PBST buffer (pH 7.4 PBS containing 0.05% tween-20), followed by diluting 50 μl/well of different concentrations of the antibodies (hybridoma purification antibody or humanized antibody) to be tested the plate was incubated in an incubator at 37° C. for 2 hours. After incubation, the plate was wash 4 times with PBST. […] After washing the plate 4 times with PBST, 50 μl/well of TMB chromogenic substrate (KPL, Cat No. 52-00-03) was added, the plate was incubated at room temperature for 10-25 min, followed by adding 50 μl/well of 1M H₂SO₄ to stop the reaction. The absorption value was read at 450 nm with a NOVOStar microplate reader, and the EC50 value of the CD96 antibodies to CD96 overexpressing CHO-S cells was calculated (see FIG. 1 and Table 15).

EC50 [nM] | Binder
0.043 | B1
0.012 | B2
0.036 | B3
0.047 | B4
0.043 | B5
0.044 | B6
0.053 | B7
0.031 | B8
0.036 | B9
0.026 | B10
0.074 | B11
0.016 | B12

The binders below were run against T1, CD96 extracellular region with His tag … (assay: SPR (Biacore), antibody captured, CD96-ECD-His as mobile phase).
Description: Protein A biosensor chip was used to capture antibodies to be tested, then CD96 antigen was flowed on the surface of the chip, and real time reaction signal was detected by Biacore to obtain the binding and dissociation curve. After the dissociation of each experimental cycle was completed, the biosensor chip was washed and regenerated with a glycine-hydrochloric acid regeneration solution (pH 1.5).

Kd [nM] | Binder
1.05 | B1
9.74 | B2
2.28 | B3
0.86 | B4
1.19 | B5
3.98 | B8
1.35 | B9
3.32 | B10
1.61 | B11
13.1 | B12
